Source: publication PMC7864068, “α2-Macroglobulin-like protein 1 can conjugate and inhibit proteases through their hydroxyl groups, because of an enhanced reactivity of its thiol ester” (The Journal of Biological Chemistry, 2021)

T1: Thermolysin from Geobacillus stearothermophilus, unmodified (Geobacillus stearothermophilus, UniProt P00800 233-548)
T1 sequence (looked up): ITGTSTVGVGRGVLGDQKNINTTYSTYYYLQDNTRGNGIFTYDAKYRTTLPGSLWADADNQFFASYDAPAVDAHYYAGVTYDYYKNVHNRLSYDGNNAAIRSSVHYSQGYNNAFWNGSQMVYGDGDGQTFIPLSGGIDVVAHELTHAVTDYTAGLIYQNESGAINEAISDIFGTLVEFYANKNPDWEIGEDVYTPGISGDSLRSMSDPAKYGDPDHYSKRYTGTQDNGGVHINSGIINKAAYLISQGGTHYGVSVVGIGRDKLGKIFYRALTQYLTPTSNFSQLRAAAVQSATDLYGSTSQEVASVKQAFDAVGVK


Tests used:
[1] = molecular target: Acetylated thermolysin (Geobacillus stearothermophilus) (UniProt P00800)
[2] = molecular target: T1, Thermolysin from Geobacillus …; assay: cell-based or functional assay

Binder | inhibition of acetylated thermolysin's cleavage of resorufin-labeled casein, pH 7.8; molar surplus of A2ML1 needed for full inhibition (fold molar surplus of A2ML1) [1] | inhibition of thermolysin's cleavage of resorufin-labeled casein, pH 7.8; molar surplus of A2ML1 needed for full inhibition [2] | inhibition of thermolysin's cleavage of resorufin-labeled casein, reaction at pH 5; surplus of A2ML1 needed for full inhibition [2]
Human α2-macroglobulin-like protein 1 (A2ML1), recombinant wild type (natural protein, UniProt A8K2U0-1 18-1454, looked up, internal thiol ester in which Gln-973 participates) EELPNYLVTLPARLNFPSVQKVCLDLSPGYSDVKFTVTLETKDKTQKLLEYSGLKKRHLHCISFLVPPPAGGTEEVATIRVSGVGNNISFEEKKKVLIQRQGNGTFVQTDKPLYTPGQQVYFRIVTMDSNFVPVNDKYSMVELQDPNSNRIAQWLEVVPEQGIVDLSFQLAPEAMLGTYTVAVAEGKTFGTFSVEEYVLPKFKVEVVEPKELSTVQESFLVKICCRYTYGKPMLGAVQVSVCQKANTYWYREVEREQLPDKCRNLSGQTDKTGCFSAPVDMATFDLIGYAYSHQINIVATVVEEGTGVEANATQNIYISPQMGSMTFEDTSNFYHPNFPFSGKIRVRGHDDSFLKNHLVFLVIYGTNGTFNQTLVTDNNGLAPFTLETSGWNGTDVSLEGKFQMEDLVYNPEQVPRYYQNAYLHLRPFYSTTRSFLGIHRLNGPLKCGQPQEVLVDYYIDPADASPDQEISFSYYLIGKGSLVMEGQKHLNSKKKGLKASFSLSLTFTSRLAPDPSLVIYAIFPSGGVVADKIQFSVEMCFDNQVSLGFSPSQQLPGAEVELQLQAAPGSLCALRAVDESVLLLRPDRELSNRSVYGMFPFWYGHYPYQVAEYDQCPVSGPWDFPQPLIDPMPQGHSSQRSIIWRPSFSEGTDLFSFFRDVGLKILSNAKIKKPVDCSHRSPEYSTAMGAGGGHPEAFESSTPLHQAEDSQVRQYFPETWLWDLFPIGNSGKEAVHVTVPDAITEWKAMSFCTSQSRGFGLSPTVGLTAFKPFFVDLTLPYSVVRGESFRLTATIFNYLKDCIRVQTDLAKSHEYQLESWADSQTSSCLCADDAKTHHWNITAVKLGHINFTISTKILDSNEPCGGQKGFVPQKGRSDTLIKPVLVKPEGVLVEKTHSSLLCPKGKVASESVSLELPVDIVPDSTKAYVTVLGDIMGTALQNLDGLVQMPSGCGEQNMVLFAPIIYVLQYLEKAGLLTEEIRSRAVGFLEIGYQKELMYKHSNGSYSAFGERDGNGNTWLTAFVTKCFGQAQKFIFIDPKNIQDALKWMAGNQLPSGCYANVGNLLHTAMKGGVDDEVSLTAYVTAALLEMGKDVDDPMVSQGLRCLKNSATSTTNLYTQALLAYIFSLAGEMDIRNILLKQLDQQAIISGESIYWSQKPTPSSNASPWSEPAAVDVELTAYALLAQLTKPSLTQKEIAKATSIVAWLAKQHNAYGGFSSTQDTVVALQALAKYATTAYMPSEEINLVVKSTENFQRTFNIQSVNRLVFQQDTLPNVPGMYTLEASGQGCVYVQTVLRYNILPPTNMKTFSLSVEIGKARCEQPTSPRSLTLTIHTSYVGSRSSSNMAIVEVKMLSGFSPMEGTNQLLLQQPLVKKVEFGTDTLNIYLDELIKNTQTYTFTISQSVLVTNLKPATIKVYDYYLPDEQATIQYSDPCE | 6 | ~2 fold molar surplus of A2ML1 | ~4 fold surplus of A2ML1
A2ML1 H1084N mutant (natural protein, human, UniProt A8K2U0-1 18-1454, looked up, internal thiol ester in which Gln-973 participates) EELPNYLVTLPARLNFPSVQKVCLDLSPGYSDVKFTVTLETKDKTQKLLEYSGLKKRHLHCISFLVPPPAGGTEEVATIRVSGVGNNISFEEKKKVLIQRQGNGTFVQTDKPLYTPGQQVYFRIVTMDSNFVPVNDKYSMVELQDPNSNRIAQWLEVVPEQGIVDLSFQLAPEAMLGTYTVAVAEGKTFGTFSVEEYVLPKFKVEVVEPKELSTVQESFLVKICCRYTYGKPMLGAVQVSVCQKANTYWYREVEREQLPDKCRNLSGQTDKTGCFSAPVDMATFDLIGYAYSHQINIVATVVEEGTGVEANATQNIYISPQMGSMTFEDTSNFYHPNFPFSGKIRVRGHDDSFLKNHLVFLVIYGTNGTFNQTLVTDNNGLAPFTLETSGWNGTDVSLEGKFQMEDLVYNPEQVPRYYQNAYLHLRPFYSTTRSFLGIHRLNGPLKCGQPQEVLVDYYIDPADASPDQEISFSYYLIGKGSLVMEGQKHLNSKKKGLKASFSLSLTFTSRLAPDPSLVIYAIFPSGGVVADKIQFSVEMCFDNQVSLGFSPSQQLPGAEVELQLQAAPGSLCALRAVDESVLLLRPDRELSNRSVYGMFPFWYGHYPYQVAEYDQCPVSGPWDFPQPLIDPMPQGHSSQRSIIWRPSFSEGTDLFSFFRDVGLKILSNAKIKKPVDCSHRSPEYSTAMGAGGGHPEAFESSTPLHQAEDSQVRQYFPETWLWDLFPIGNSGKEAVHVTVPDAITEWKAMSFCTSQSRGFGLSPTVGLTAFKPFFVDLTLPYSVVRGESFRLTATIFNYLKDCIRVQTDLAKSHEYQLESWADSQTSSCLCADDAKTHHWNITAVKLGHINFTISTKILDSNEPCGGQKGFVPQKGRSDTLIKPVLVKPEGVLVEKTHSSLLCPKGKVASESVSLELPVDIVPDSTKAYVTVLGDIMGTALQNLDGLVQMPSGCGEQNMVLFAPIIYVLQYLEKAGLLTEEIRSRAVGFLEIGYQKELMYKHSNGSYSAFGERDGNGNTWLTAFVTKCFGQAQKFIFIDPKNIQDALKWMAGNQLPSGCYANVGNLLNTAMKGGVDDEVSLTAYVTAALLEMGKDVDDPMVSQGLRCLKNSATSTTNLYTQALLAYIFSLAGEMDIRNILLKQLDQQAIISGESIYWSQKPTPSSNASPWSEPAAVDVELTAYALLAQLTKPSLTQKEIAKATSIVAWLAKQHNAYGGFSSTQDTVVALQALAKYATTAYMPSEEINLVVKSTENFQRTFNIQSVNRLVFQQDTLPNVPGMYTLEASGQGCVYVQTVLRYNILPPTNMKTFSLSVEIGKARCEQPTSPRSLTLTIHTSYVGSRSSSNMAIVEVKMLSGFSPMEGTNQLLLQQPLVKKVEFGTDTLNIYLDELIKNTQTYTFTISQSVLVTNLKPATIKVYDYYLPDEQATIQYSDPCE | – | ~2 fold molar surplus of A2ML1 | ~4 fold surplus of A2ML1
